Changes are numbered by the printed parent chain.
T1: P126(AA): PlGF mutant #1 (human)
T1 chain: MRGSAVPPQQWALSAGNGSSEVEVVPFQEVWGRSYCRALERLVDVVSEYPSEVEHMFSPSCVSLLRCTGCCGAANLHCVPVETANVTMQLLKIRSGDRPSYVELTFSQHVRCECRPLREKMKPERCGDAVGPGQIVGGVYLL

T2: P126(DE): recombinant PlGF wild type (human)
T2 construct: also called unaltered PlGF
T2 chain: T1 chain with A73D, A74E

B1: Full length sFlt (soluble fms-like tyrosine kinase 1, sFlt-1), Scios Inc. Lot# 9225-89 (receptor)
chain: SKLKDPELSLKGTQHIMQAGQTLHLQCRGEAAHKWSLPEMVSKESERLSITKSACGRNGKQFCSTLTLNTAQANHTGFYSCKYLAVPTSKKKETESAIYIFISDTGRPFVEMYSEIPEIIHMTEGRELVIPCRVTSPNITVTLKKFPLDTLIPDGKRIIWDSRKGFIISNATYKEIGLLTCEATVNGHLYKTNYLTHRQTNTIIDVQISTPRPVKLLRGHTLVLNCTATTPLNTRVQMTWSYPDEKNKRASVRRRIDQSNSHANIFYSVLTIDKMQNKDKGLYTCRVRSGPSFKSVNTSVHIYDKAFITVKHRKQQVLETVAGKRSYRLSMKVKAFPSPEVVWLKDGLPATEKSARYLTRGYSLIIKDVTEEDAGNYTILLSIKQSNVFKNLTATLIVNVKPQIYEKAVSSFPDPALYPLGSRQILTCTAYGIPQPTIKWFWHPCNHNHSEARCDFCSNNEESFILDADSNMGNRIESITQRMAIIEGKNKMASTLVVADSRISGIYICIASNKVGTVGRNISFYITDVPNGFHVNLEKMPTEGEDLKLSCTVNKFLYRDVTWILLRTVNNRTMHYSISKQKMAITKEHSITLNLTIMNVSLQDSGTYACRARNVYTGEEILQKKEITIRGEHCNKKAVFSRISKFKSTRNDCTTQSNVKH
notes: also called recombinant sFlt
B2: P126(GAA): PlGF mutant #2 (ligand)
chain: T1 chain with C71G

Key:
P126(AA): PlGF mutant #1 [1] = molecular target: T1, P126(AA): PlGF mutant #1; experiment: ELISA, coated PlGF, sFlt at 66.67 ng/mL, detected with RD-1 + RD-2 anti-sFlt
[2] = molecular target: B2; experiment: as above
[3] = molecular target: T2, P126(DE): recombinant PlGF wild type; experiment: as above
P126(AA): PlGF mutant #1 [4] = molecular target: T1, P126(AA): PlGF mutant #1; experiment: ELISA, coated PlGF, sFlt at 1800 ng/mL, detected with RD-1 + RD-2 anti-sFlt
[5] = molecular target: B2; experiment: as above
[6] = molecular target: T2, P126(DE): recombinant PlGF wild type; experiment: as above
P126(AA): PlGF mutant #1 [7] = molecular target: T1, P126(AA): PlGF mutant #1; experiment: ELISA, coated PlGF, sFlt at 200 ng/mL, detected with RD-1 + RD-2 anti-sFlt
[8] = molecular target: B2; experiment: as above
[9] = molecular target: T2, P126(DE): recombinant PlGF wild type; experiment: as above
P126(AA): PlGF mutant #1 [10] = molecular target: T1, P126(AA): PlGF mutant #1; experiment: ELISA, coated PlGF, sFlt at 600 ng/mL, detected with RD-1 + RD-2 anti-sFlt
[11] = molecular target: B2; experiment: as above
[12] = molecular target: T2, P126(DE): recombinant PlGF wild type; experiment: as above
[13] = molecular target: B1; experiment: ELISA, sFlt coated 0.5 ug/mL, PlGF in solution, detected with Rat-4
Experimental: High-binding microtiter plate was coated with recombinant sFlt at 0.5 ug/mL and blocked with BSA/PBS
Standard ELISA procedure consists of 1st plate incubation with diluted P126(DE) or P126(AA) or P126(GAA) in casein/PBS at various concentration, 2nd plate incubation with monoclonal anti-PlGF Rat-4 solution at 0.1 ug/mL, 3rd plate incubation with HRP conjugated donkey anti-Rat IgG at 1:4K dilution in casein/PBS and 4th plate incubation with 100 uL OPD substrate development for 25 C/30 min. 1st, 2nd and 3rd plate incubation step is at 37 C/15-20 min/shake; 6 times plate washing between each step. 25 uL stop solution after 4th incubation and record OD at 492 nm.

OD at 492 nm (P126(AA): PlGF mutant #1 [1])	OD at 492 nm [2]	OD at 492 nm [3]	OD at 492 nm (P126(AA): PlGF mutant #1 [4])	OD at 492 nm [5]	OD at 492 nm [6]	OD at 492 nm (P126(AA): PlGF mutant #1 [7])	OD at 492 nm [8]	OD at 492 nm [9]	OD at 492 nm (P126(AA): PlGF mutant #1 [10])	OD at 492 nm [11]	OD at 492 nm [12]	binding result [13]	Binder
0.143 OD	0.088 OD	0.347 OD	0.21 OD	0.15 OD	> 3 OD	0.115 OD	0.095 OD	0.833 OD	0.182 OD	0.101 OD	1.83 OD	–	B1
–	–	–	–	–	–	–	–	–	–	–	–	no binding (tested: 1000 ng/mL)	B2

— patent US20090176264A1 (ORTHO CLINICAL DIAGNOSTICS, published 2009)
